Measured values: paper PMC11033290

Molecular target: Recombinant MDP1 (Mycobacterial DNA-binding protein 1) of M. tuberculosis produced in Escherichia coli (Mycobacterium tuberculosis) (UniProt P9WMK7)
Assay: cross-linking; glutaraldehyde 0.2%, room temperature, 30 min; 4 µM or 8 µM protein in 150-1500 mM NaCl; SDS-PAGE on a 4-15% gradient gel

Recombinant MDP1 (Mycobacterial DNA-binding protein 1) of M. tuberculosis produced in Escherichia coli (from UniProt P9WMK7 3-216) (natural protein)
stoichiometry N: 2
